According to publication PMC10925046, “TERRA-LSD1 phase separation promotes R-loop formation for telomere maintenance in ALT cancer cells”:

Tests used:
LSD1 deltaIDR;CoREST = LSD1 deltaIDR;CoREST (human;human?, UniProt O60341;Q9UKL0 171-852;289-485, |); experiment: pull-down; EMSA: 4 C, 5 min, 0.75% agarose in 1x THE pH 7.4 (34 mM Tris, 66 mM HEPES, 0.1 mM EDTA) + 0.1 M K acetate, RNA folded in 10 mM Tris pH 7.4, 100 mM KCl, 1 mM TCE
LSD1 deltaIDR 3KE;CoREST = LSD1 deltaIDR 3KE;CoREST (human;human?, UniProt O60341;Q9UKL0 171-852;289-485, K355E;K357E;K359E|); experiment: as above

B1: biotin-TERRA (UUAGGG)8 (structured_RNA)
RNA: UUAGGGUUAGGGUUAGGGUUAGGGUUAGGGUUAGGGUUAGGGUUAGGG
B1: binds (LSD1 deltaIDR;CoREST); no binding (LSD1 deltaIDR 3KE;CoREST).
